In paper PMC10998830:
Where “and” joins values, the source holds several entries; their conditions need not be identical. Identical values can stand only once.

Legend:
[1] = test system: O=P(O)(O)OC[C@H]1O[C@H](OP(=O)(O)OP(=O)(O)O)[C@H](O)[C@@H]1O; test: purified protein, by the assay type; details: 25.0 °C
Description: (§1) Kinetics and thermal denaturation data were analysed by the nonlinear regression function of SigmaPlot 14.0 (SPSS Inc.). Thermal denaturation data were fitted to Eq. (1). Substrate saturation curves at a fixed concentration of the co-substrate were fitted to Eq. (2). Initial rate data at varying concentrations of HisZ were fitted to Eq. (3). The concentration of ATPPRT at any concentration of AbHisGS and AbHisZ was calculated according to Eq. (4). Histidine dose-response data were fitted to Eq. (5). Single-turnover data with WT-AbATPPRT isotopologues were fitted to Eq. (6). Plots of kcat ratios against relative viscosity were fitted to Eq. (7). Temperature-rate profile for AbHisGS was fitted to Eq. (8). Single-turnover data with R70A-AbATPPRT isotopologues were fitted to Eq. (9). In Eqs. […] While kcats for [^13C,^15N]AbHisGS and [^2H,^13C,^15N]AbHisGS are marginally lower than for unlabelled AbHisGS and [^15N]AbHisGS, the overlapping nature of most data points in Fig. 1c disagrees with distinguishable heavy-enzyme kinetic isotope effects on kcat (^HEkcat). […] This was further probed by pre-steady-state kinetics under multiple-turnover conditions. The AbHisGS reaction had been shown not to have a burst of product formation, which is reproduced here for unlabelled AbHisGS, whose traces overlap with those for [^2H,^13C,^15N]AbHisGS (Supplementary Fig. 5). S5 Supplementary Figure 4 Substrate saturation curves for unlabelled AbATPPRT with AbHisGS purified from cultures grown in M9 and M9 with high cell density compared with previously published data (reproduced here) for unlabelled AbATPPRT with AbHisGS purified from cultures grown in LB. For the M9 and M9 high cell density curves, all data points are shown for two independent measurements, except for the previously published LB curves, where data are the mean of two independent measurements. Lines are best fit of the data to equation (2): solid line for M9 high cell density curves, long-dashed line for M9 curves, and short-dashed line for previously published LB curves. Supplementary Figure 5 Rapid kinetics of PRATP formation at 25 °C by unlabelled AbHisGS and [2H,13C,15N]AbHisGS under multiple-turnover conditions. All traces are shown for eight replicates with each isotopologue.

[2] = test system: Nc1ncnc2c1ncn2[C@@H]1O[C@H](COP(=O)(O)OP(=O)(O)OP(=O)(O)O)[C@@H](O)[C@H]1O; test: purified protein, by the assay type; details: 25.0 °C
Description: as §1

Substance: AbHisGS (Acinetobacter baumannii ACICU)
- Km [1]: 540 ± 40 µM and 330 ± 10 µM and 420 ± 20 µM
- kcat [1]: 0.38 s⁻¹ and 0.34 s⁻¹
- kcat/Km [1]: 700 M⁻¹ s⁻¹ and 1020 M⁻¹ s⁻¹ and 810 M⁻¹ s⁻¹
- Km [2]: 900 ± 100 µM and 800 ± 100 µM and 590 ± 30 µM
- kcat [2]: 0.38 s⁻¹ and 0.34 s⁻¹
- kcat/Km [2]: 420 M⁻¹ s⁻¹ and 580 M⁻¹ s⁻¹
